The text below walks through data of article PMC11444335, “Next-generation cell-penetrating antibodies for tumor targeting and RAD51 inhibition” (Oncotarget, 2024).

Where a chain is given by its changes, count along the chain named. Names and notes keep the numbering of the source.

The target in this test is T1, human RAD51 (Homo sapiens, UniProt Q06609).
T1 construct: DNA repair protein RAD51, human, expressed from the CMV-hRAD51 plasmid (Addgene #125570); Endogenous RAD51 of the MCF7 cells is also present and would be detected by the same anti-RAD51 blot; also called hRAD51; source: MCF7, transiently transfected with CMV-hRAD51 plasmid, in cells and lysate
The experiment in a line: cross-linking + co-IP; CLIP: MCF7 cells transfected with 10 ug CMV-hRAD51 plasmid, treated with 500 nM purified antibody for 6 h, UV crosslinked, lysed; antibody captured on Protein A/G beads, eluate blotted with anti-RAD51; RAD51 signal normalized to Fc signal of the lysate and to WT. The settings on record: one partner purified.

T1 sequence (Q06609 whole entry): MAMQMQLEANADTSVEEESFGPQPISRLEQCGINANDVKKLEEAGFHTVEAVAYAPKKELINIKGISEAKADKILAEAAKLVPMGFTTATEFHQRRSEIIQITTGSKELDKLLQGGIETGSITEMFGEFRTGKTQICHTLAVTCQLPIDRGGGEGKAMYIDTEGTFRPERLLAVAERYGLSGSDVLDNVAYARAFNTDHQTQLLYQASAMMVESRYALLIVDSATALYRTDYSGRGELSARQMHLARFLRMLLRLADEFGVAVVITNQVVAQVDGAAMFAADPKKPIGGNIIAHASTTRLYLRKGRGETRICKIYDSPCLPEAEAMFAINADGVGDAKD

B1: fully humanized full-length 3E10 variant V31 (VH3 + VL1, IgG1) (antibody, V domains shown)
VH: EVQLVESGGGLVQPGGSLRLSCAASGFTFSNYGMHWVRQAPGKGLEWVAYISSGSSTIYYADTVKGRFTISRDNAKNSLYLQMTSLRAEDTAMYYCARRGLLLDYWGQGTLVTVSS
VL: DIVLTQSPASLAVSPGQRATITCRASKSVSTSSYSYMHWYQQKPGQPPKLLIYYASYLESGVPARFSGSGSGTDFTLTINPVEANDTANYYCQHSREFPWTFGGGTKVEIK
notes: humanized VH3 (CDR graft of 3E10 on germline IGHV3-48*01, with N31); human IgG1 heavy chain constant region; humanized VL1 (CDR graft of 3E10 on germline IGKV7-3*01); IgG1; all humanized variants contain the D31N mutation; source: Chinese hamster ovary cells, purified (Genscript)
As to B1, the binding result was “binds”.

B2: full-length chimeric WT 3E10 (murine variable chains, human IgG1 Fc domain) (antibody, V domains shown)
VH: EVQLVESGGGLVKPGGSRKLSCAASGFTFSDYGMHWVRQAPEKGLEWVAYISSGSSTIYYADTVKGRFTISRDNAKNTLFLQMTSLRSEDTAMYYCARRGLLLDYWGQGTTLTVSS
VL: B1 VL with P15L, T22S, Y53K, T78N, N80H, A84E, N85E, T87A, N89T, V108L
notes: murine 3E10 VH, wild type (D31 in CDR1); human IgG1 heavy chain constant region; murine 3E10 VL, wild type; IgG1 chimera; also called parental 3E10; source: purified antibody
As for B2, the binding result is listed as “binds”.
